This is an account of results in PMC11094025.

The target of test [1] is VAPB (Vesicle-Associated-membrane Protein-associated protein B), endogenous (UniProt O95292). Nature of the test: peptide pull-down from total HeLa cell lysate, Western blot quantification. The note with it: parent: est. 1.0; read off a plot.
Test [2] concerns the target GST-VAPB-MSP (wild-type MSP-domain of VAPB fused to a GST-tag) (UniProt O95292). Nature of the test: peptide pull-down of purified protein, Coomassie gel quantification. As to conditions: parent: est. 1.0; read off a plot.

For “ELYS FFAT-2 peptide, non-phosphorylated S1314A; S1326A”, the ratio to parent in test [1] amounted to 0.5; in test [2], 1.1.
